Where no end group is shown, it is not given here.

In one test the target is T1, PAK4 (Homo sapiens, UniProt Q9NQU5).
T1 construct: made in house; host or cells: 293 cells (transient transfection, immunopurified) or bacteria (GST fusion)
Nature of the test: In vitro kinase assay, activation loop peptide as PAK4 substrate. The test is classed as biochemical. How it is done:
(§1) Three days after transfection with the STE20-related kinase expression contructs, a 10 cm plate of 293 cells was washed with PBS and solubilized on ice with 2 mL PBSTDS containing phosphatase inhibitors (10 mM NaHPO4, pH 7.25, 150 mM NaCl, 1% Triton X-100, 0.5% deoxycholate, 0.1% SDS, 0.2% sodium azide, 1 mM NaF, 1 mM EGTA, 4 mM sodium orthovanadate, 1% aprotinin, 5 μg/mL leupeptin). Cell debris was removed by centrifugation (12000× g, 15 min, 4° C.) and the lysate was precleared by two successive incubations with 50 μL of a 1:1 slurry of protein A sepharose for 1 hour each. One-half mL of the cleared supernatant was reacted with 10 μL of protein A purified kinase-specific antisera (generated from the GST fusion protein or antipeptide antisera) plus 50 μL of a 1:1 slurry of protein A-sepharose for 2 hr at 4° C. The beads were then washed 2 times in PBSTDS, and 2 times in HNTG (20 mM HEPES, pH 7.5/150 mM NaCl, 0,1% Triton X-100, 10% glycerol).
The immunopurified kinases on sepharose beads were resuspended in 20 μL HNTG plus 30 mM MgCl2, 10 mM MnCl2, and 20 μCi […] (3000 Ci/mmol). The kinase reactions were run for 30 min at room temperature, and stopped by addition of HNTG supplemented with 50 mM EDTA. The samples were washed 6 times in HNTG, boiled 5 min in SDS sample buffer and analyzed by 6% SDS-PAGE followed by autoradiography. […]

The target of another test is T2, PAK5 (Homo sapiens, UniProt O96013).
T2 construct: made in house; host or cells: 293 cells (transient transfection, immunopurified on protein A sepharose) or bacteria (GST fusion)
Nature of the test: In vitro kinase assay, activation loop peptides as PAK5 substrates. To be noted: for substrate: peptide substrates at 2.5 μM. The test is classed as biochemical. How it is done: as §1
The immunopurified kinases on sepharose beads were resuspended in 20 μL HNTG plus 30 mM MgCl2, 10 mM MnCl2, and 20 μCi […] (3000 Ci/mmol). The kinase reactions were run for 30 min at room temperature, and stopped by addition of HNTG supplemented with 50 mM EDTA. The samples were washed 6 times in HNTG, boiled 5 min in SDS sample buffer and analyzed by 6% SDS-PAGE followed by autoradiography. Phosphoamino acid analysis was performed by standard 2D methods on ^32P-labeled bands excised from the SDS-PAGE gel.
Similar assays were performed on bacterially expressed GST-fusion constructs of the kinases.
20 mM Hepes pH 7.2, 130 mM KCl, 10 mM MgCl2, 1 mM NaF, 20 mM B-glycerolphosphate, 0.5 mM DTT, 50 μM ATP, 0.5 μCi ^32PyATP.
Substrates: MBP at 0.28 mg/mL and peptide substrates derived from PAK5 activation loop at 2.5 μM.
To aid in the development of in vitro kinase assays for screening small molecule libraries to identify specific inhibitors, the search for specific peptide substrates for PAK5 was undertaken.
The rationale used to design such peptides is based on the hypothesis that upon binding activated small G protein, PAK5 undergoes a conformational change that results in derepression of its kinase activity followed by autophosphorylation on the activation loop resulting in a fully active kinase. The site of autophosphorylation for related family members has been identified by biochemical and/or genetic means (e.g. Wu, C, et al. J.Biol.Chem 270:15984-15992 and Szczepanowska, et al. Proc.Natl.Acad.Sci 94, 8503-8508, 1997). Specific peptide substrates for PAKS were designed from the sequence of the activation loop of this kinase.

T2 sequence (O96013 whole entry, the tested form may be a part): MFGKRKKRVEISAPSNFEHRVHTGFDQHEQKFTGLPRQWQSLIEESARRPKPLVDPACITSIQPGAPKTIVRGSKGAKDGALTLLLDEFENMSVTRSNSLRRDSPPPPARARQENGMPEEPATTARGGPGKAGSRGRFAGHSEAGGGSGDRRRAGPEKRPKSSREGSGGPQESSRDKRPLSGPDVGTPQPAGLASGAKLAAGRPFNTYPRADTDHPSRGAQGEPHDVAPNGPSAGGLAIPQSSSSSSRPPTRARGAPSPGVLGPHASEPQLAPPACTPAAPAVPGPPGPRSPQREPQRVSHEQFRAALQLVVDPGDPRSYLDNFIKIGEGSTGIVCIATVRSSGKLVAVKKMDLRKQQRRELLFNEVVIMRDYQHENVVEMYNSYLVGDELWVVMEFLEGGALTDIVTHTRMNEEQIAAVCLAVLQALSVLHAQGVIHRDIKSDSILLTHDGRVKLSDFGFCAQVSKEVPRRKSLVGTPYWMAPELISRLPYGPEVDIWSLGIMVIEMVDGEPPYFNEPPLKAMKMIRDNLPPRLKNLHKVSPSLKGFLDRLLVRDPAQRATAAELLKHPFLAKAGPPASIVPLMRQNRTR
T1 sequence (Q9NQU5 whole entry, the tested form may be a part): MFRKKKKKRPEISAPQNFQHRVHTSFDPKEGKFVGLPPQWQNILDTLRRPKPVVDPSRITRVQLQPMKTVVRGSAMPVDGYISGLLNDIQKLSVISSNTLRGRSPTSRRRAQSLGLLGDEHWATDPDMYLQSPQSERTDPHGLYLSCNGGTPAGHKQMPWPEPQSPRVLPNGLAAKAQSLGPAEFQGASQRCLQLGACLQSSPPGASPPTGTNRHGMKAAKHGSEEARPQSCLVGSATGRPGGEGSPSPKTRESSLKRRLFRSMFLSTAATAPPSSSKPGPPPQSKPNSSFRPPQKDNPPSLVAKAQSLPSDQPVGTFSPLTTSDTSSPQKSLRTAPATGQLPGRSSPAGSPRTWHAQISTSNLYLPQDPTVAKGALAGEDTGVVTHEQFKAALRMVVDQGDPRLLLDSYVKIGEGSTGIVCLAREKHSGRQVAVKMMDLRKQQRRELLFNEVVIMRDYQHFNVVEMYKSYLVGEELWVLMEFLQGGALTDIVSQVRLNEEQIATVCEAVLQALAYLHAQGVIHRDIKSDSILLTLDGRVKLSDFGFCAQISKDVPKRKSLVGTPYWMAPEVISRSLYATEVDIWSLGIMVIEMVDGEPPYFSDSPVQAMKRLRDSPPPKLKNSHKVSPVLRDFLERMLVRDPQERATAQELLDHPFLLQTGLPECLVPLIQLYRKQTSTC

For “(C) RRKSLVGTPYWMAPE (CRRKSLVGTPYWMAPE; N-terminal cysteine) [Peptide 10]”, in the test with PAK4, the “Notes: Km for PAK4 compared with PAK5” value is reported as “Same Km as phosph. by PAK5” and the substrate entry is reported as “yes”.
Consider “(C) RRKSLVGTPYWMAPE [1] (CRRKSLVGTPYWMAPE; N-terminal cysteine) [Peptide 1]”, for which, in the test with PAK5, the “Notes: substrate quality relative to MBP or other peptides” value is recorded as “Equally well as MBB” and the substrate result was “yes”.
As usually defined, the Km is the substrate concentration at which the rate is half of its maximum. Regarding “(C) RRKSLVGTPYWMAPE [2] (CRRKSLVGTPYWMAPE; also: phosphorylated residue) [Peptide 2, phosphorylated residue marking not visible]”, in the test with PAK5 (Notes column), the Michaelis constant (Km) is 1 to 10 µM. Besides, the substrate entry with PAK5 is “yes”.
With “(C) RRKSLVGTPYWMAPE [3] (CRRKSLVGTPYWMAPE; also: phosphorylated residue) [Peptide 3, phosphorylated residue marking not visible]”, the substrate result with PAK5 was “no”.
Take KRKSFIGTPYWMAPE [Peptide 4]: in the test with PAK5, the “Notes: substrate quality relative to MBP or other peptides” value is on record as “Similiar to peptide 1” and the substrate entry is reported as “yes”.
As to KRNTFVGTPFWMAPE [Peptide 5], the substrate entry in the test with PAK5 was “poor”.
Consider PANSFVGTPYWMAPE [Peptide 6], for which the substrate entry in the test with PAK5 is “poor”.
RNKVRKTFVGTPCWMAPE [Peptide 9]: the substrate result with PAK5 is recorded as “poor”.
Regarding “RRNTFIGTPYWMAPE (also: phosphorylated residue) [Peptide 8, phosphorylated residue marking not visible]”, the “Notes: substrate quality relative to MBP or other peptides” value with PAK5 is on record as “Better than 7”.
As for RRNTFIGTPYWMAPE [Peptide 7], the substrate result in the test with PAK5 is “poor”.
